T1: APBA2_2, Q99767
T1 sequence (Q99767 654-744, limits assumed, looked up): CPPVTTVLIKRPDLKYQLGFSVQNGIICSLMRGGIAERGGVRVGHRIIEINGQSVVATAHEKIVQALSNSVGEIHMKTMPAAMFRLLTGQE

T2: GRIP1_7, Q9Y3R0
T2 sequence (Q9Y3R0 999-1096, limits assumed, looked up): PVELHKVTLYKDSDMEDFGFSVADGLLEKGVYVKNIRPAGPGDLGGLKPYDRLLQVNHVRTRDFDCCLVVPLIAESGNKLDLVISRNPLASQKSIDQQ

T3: MPDZ_12, O75970
T3 sequence (O75970 1857-1958, limits assumed, looked up): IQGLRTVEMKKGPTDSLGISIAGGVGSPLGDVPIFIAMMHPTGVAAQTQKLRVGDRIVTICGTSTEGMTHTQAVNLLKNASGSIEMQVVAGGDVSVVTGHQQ

T4: DFNB31_2, Q9P202
T4 sequence (Q9P202 274-371, limits assumed, looked up): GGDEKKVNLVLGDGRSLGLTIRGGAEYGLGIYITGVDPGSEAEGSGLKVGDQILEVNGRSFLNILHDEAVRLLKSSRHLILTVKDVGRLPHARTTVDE

T5: PTPN13_1, Q12923
T5 sequence (Q12923 1088-1188, limits assumed, looked up): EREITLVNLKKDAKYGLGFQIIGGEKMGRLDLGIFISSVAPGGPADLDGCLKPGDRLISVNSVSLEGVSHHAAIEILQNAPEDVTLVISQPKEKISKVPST

T6: SHANK1, Q9Y566
T6 sequence (Q9Y566 658-767, limits assumed, looked up): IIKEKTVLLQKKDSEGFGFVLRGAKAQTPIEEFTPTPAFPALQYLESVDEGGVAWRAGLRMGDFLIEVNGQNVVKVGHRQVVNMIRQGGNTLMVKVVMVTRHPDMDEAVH

T7: DFNB31_3, Q9P202
T7 sequence (Q9P202 811-907, limits assumed, looked up): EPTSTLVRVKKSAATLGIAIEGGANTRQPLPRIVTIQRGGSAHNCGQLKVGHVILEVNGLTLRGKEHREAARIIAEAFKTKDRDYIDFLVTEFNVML

T8: SYNJ2BP, P57105
T8 sequence (P57105 8-110, limits assumed, looked up): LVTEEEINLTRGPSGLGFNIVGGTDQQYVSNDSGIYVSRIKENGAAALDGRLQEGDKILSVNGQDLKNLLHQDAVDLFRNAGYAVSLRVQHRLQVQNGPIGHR

T9: MPP6, Q9NZW5
T9 sequence (Q9NZW5 125-219, limits assumed, looked up): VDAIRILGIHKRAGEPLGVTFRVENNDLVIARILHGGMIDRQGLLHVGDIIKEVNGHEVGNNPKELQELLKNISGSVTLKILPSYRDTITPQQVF

T10: PDZD7_3, Q9H5P4
T10 sequence (Q9H5P4 857-944, limits assumed, looked up): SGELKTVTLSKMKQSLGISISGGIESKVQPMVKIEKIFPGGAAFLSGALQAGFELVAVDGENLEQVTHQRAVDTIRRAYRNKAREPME

T11: GRIP1_3, Q9Y3R0
T11 sequence (Q9Y3R0 247-346, limits assumed, looked up): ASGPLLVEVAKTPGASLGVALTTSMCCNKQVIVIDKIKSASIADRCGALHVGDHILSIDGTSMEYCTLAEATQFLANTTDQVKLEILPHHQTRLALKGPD

T12: APBA1_1, Q02410
T12 sequence (Q02410 651-752, limits assumed, looked up): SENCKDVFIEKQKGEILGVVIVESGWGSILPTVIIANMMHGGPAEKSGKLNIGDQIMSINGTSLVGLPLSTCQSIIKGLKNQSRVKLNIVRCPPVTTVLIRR


How the values were obtained:
Assay in all cases: holdup assay
Parameters in all cases: key: below the threshold = too weak to quantify, mostly under pKd 3.1 to 4
Settings in all cases: plain residues with an end cap or a label only (N-terminal biotin on a linker: ado-ado)
APBA2_2, Q99767 = target: T1, APBA2_2, Q99767
GRID2IP_1, A4D2P6 = target: GRID2IP_1, A4D2P6
TJP1_3, Q07157 = target: TJP1_3, Q07157
GRIP1_7, Q9Y3R0 = target: T2, GRIP1_7, Q9Y3R0
NHERF2_2, Q15599 = target: NHERF2_2, Q15599
MPDZ_12, O75970 = target: T3, MPDZ_12, O75970
MAGI1_1, Q96QZ7 = target: MAGI1_1, Q96QZ7
DFNB31_2, Q9P202 = target: T4, DFNB31_2, Q9P202
PTPN13_1, Q12923 = target: T5, PTPN13_1, Q12923
MAST1, Q9Y2H9 = target: MAST1, Q9Y2H9
Inadl_8, Q8NI35 = target: Inadl_8, Q8NI35
GRIP2_3, Q9C0E4 = target: GRIP2_3, Q9C0E4
PDZRN4_1, Q6ZMN7 = target: PDZRN4_1, Q6ZMN7
GOPC, Q9HD26 = target: GOPC, Q9HD26
DLG4_2, P78352 = target: DLG4_2, P78352
CASK, O14936 = target: CASK, O14936
MAGI1_2, Q96QZ7 = target: MAGI1_2, Q96QZ7
SHANK1, Q9Y566 = target: T6, SHANK1, Q9Y566
DFNB31_3, Q9P202 = target: T7, DFNB31_3, Q9P202
DLG4_3, P78352 = target: DLG4_3, P78352
SYNJ2BP, P57105 = target: T8, SYNJ2BP, P57105
MPP6, Q9NZW5 = target: T9, MPP6, Q9NZW5
PDZD7_3, Q9H5P4 = target: T10, PDZD7_3, Q9H5P4
GRIP1_3, Q9Y3R0 = target: T11, GRIP1_3, Q9Y3R0
FRMPD2_2, Q68DX3 = target: FRMPD2_2, Q68DX3
APBA1_1, Q02410 = target: T12, APBA1_1, Q02410

Sequence of CASK, O14936 (O14936 487-570): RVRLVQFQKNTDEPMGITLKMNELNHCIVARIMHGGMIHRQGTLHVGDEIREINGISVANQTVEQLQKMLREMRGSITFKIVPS
Sequence of PDZRN4_1, Q6ZMN7 (Q6ZMN7 213-318): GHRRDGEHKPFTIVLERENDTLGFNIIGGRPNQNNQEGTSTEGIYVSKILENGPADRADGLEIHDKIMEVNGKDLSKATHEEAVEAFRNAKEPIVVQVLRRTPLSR
Sequence of MAGI1_1, Q96QZ7 (Q96QZ7 1-106): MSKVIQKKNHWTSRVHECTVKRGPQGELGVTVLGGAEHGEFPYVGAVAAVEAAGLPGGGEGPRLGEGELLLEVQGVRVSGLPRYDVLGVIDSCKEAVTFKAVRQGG
Sequence of MAGI1_2, Q96QZ7 (Q96QZ7 456-580): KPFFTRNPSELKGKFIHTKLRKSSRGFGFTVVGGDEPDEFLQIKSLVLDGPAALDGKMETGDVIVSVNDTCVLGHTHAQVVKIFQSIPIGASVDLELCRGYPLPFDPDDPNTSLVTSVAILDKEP
Sequence of GRIP2_3, Q9C0E4 (Q9C0E4 238-339): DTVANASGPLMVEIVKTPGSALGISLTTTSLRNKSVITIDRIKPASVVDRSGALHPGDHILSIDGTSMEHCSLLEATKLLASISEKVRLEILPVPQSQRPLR
Sequence of DLG4_3, P78352 (P78352 306-403): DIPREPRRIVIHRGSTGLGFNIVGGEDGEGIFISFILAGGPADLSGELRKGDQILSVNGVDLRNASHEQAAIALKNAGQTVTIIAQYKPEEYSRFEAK
Sequence of GRID2IP_1, A4D2P6 (A4D2P6 1-87): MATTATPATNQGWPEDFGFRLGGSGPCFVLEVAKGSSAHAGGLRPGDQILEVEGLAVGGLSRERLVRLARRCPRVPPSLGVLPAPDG
Sequence of FRMPD2_2, Q68DX3 (Q68DX3 944-1038): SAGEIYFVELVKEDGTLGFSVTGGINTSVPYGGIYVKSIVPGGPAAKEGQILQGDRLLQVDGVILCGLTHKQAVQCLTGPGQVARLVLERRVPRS
Sequence of TJP1_3, Q07157 (Q07157 416-512): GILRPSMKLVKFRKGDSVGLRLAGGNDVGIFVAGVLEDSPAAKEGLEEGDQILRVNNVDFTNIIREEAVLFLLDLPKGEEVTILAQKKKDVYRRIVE
Sequence of Inadl_8, Q8NI35 (Q8NI35 1425-1530): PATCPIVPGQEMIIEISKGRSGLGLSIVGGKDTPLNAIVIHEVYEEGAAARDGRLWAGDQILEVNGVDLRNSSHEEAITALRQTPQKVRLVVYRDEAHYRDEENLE
Sequence of DLG4_2, P78352 (P78352 155-259): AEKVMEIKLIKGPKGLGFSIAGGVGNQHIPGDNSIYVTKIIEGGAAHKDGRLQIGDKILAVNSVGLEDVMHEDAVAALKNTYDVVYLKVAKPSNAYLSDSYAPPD
Sequence of NHERF2_2, Q15599 (Q15599 142-238): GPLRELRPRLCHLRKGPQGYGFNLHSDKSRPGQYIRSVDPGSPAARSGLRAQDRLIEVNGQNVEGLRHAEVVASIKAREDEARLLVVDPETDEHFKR
Sequence of MAST1, Q9Y2H9 (Q9Y2H9 962-1065): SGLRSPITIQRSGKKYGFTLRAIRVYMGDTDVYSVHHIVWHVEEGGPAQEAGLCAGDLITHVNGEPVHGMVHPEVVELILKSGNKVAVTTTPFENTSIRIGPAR

| Binder | pKd (APBA2_2, Q99767) | pKd (GRID2IP_1, A4D2P6) | pKd (TJP1_3, Q07157) | pKd (GRIP1_7, Q9Y3R0) | pKd (NHERF2_2, Q15599) | pKd (MPDZ_12, O75970) | pKd (MAGI1_1, Q96QZ7) | pKd (DFNB31_2, Q9P202) | pKd (PTPN13_1, Q12923) | pKd (MAST1, Q9Y2H9) | pKd (Inadl_8, Q8NI35) | pKd (GRIP2_3, Q9C0E4) | pKd (PDZRN4_1, Q6ZMN7) | pKd (GOPC, Q9HD26) | pKd (DLG4_2, P78352) | pKd (CASK, O14936) | pKd (MAGI1_2, Q96QZ7) | pKd (SHANK1, Q9Y566) | pKd (DFNB31_3, Q9P202) | pKd (DLG4_3, P78352) | further results |
| --- | --- | --- | --- | --- | --- | --- | --- | --- | --- | --- | --- | --- | --- | --- | --- | --- | --- | --- | --- | --- | --- |
| PRISRSQSEL [CCDC134, Q9H6E4] | below the threshold | below the threshold | below the threshold | below the threshold | below the threshold | below the threshold | below the threshold | below the threshold | below the threshold | 4.74 | below the threshold | below the threshold | below the threshold | below the threshold | below the threshold | below the threshold | 4.13 | below the threshold | 3.48 | below the threshold | pKd (SYNJ2BP, P57105): 4.09; pKd (MPP6, Q9NZW5): below the threshold; pKd (PDZD7_3, Q9H5P4): below the threshold; pKd (GRIP1_3, Q9Y3R0): below the threshold; pKd (FRMPD2_2, Q68DX3): below the threshold; pKd (APBA1_1, Q02410): below the threshold |
| VYPNAKVELV [PDLIM4_iso2, P50479;P50479-1] | below the threshold | below the threshold | below the threshold | below the threshold | below the threshold | below the threshold | below the threshold | below the threshold | below the threshold | below the threshold | below the threshold | below the threshold | below the threshold | below the threshold | below the threshold | below the threshold | below the threshold | below the threshold | below the threshold | below the threshold | pKd (SYNJ2BP, P57105): below the threshold; pKd (MPP6, Q9NZW5): below the threshold; pKd (PDZD7_3, Q9H5P4): 3.99; pKd (GRIP1_3, Q9Y3R0): below the threshold; pKd (FRMPD2_2, Q68DX3): below the threshold; pKd (APBA1_1, Q02410): below the threshold |
| LPHPHSTTRV [NLGN2, Q8NFZ4] | below the threshold | below the threshold | below the threshold | below the threshold | 3.75 | below the threshold | below the threshold | below the threshold | below the threshold | 4.64 | 4.39 | 3.52 | below the threshold | 4.28 | 3.86 | below the threshold | 4.13 | 4.81 | below the threshold | 3.82 | pKd (SYNJ2BP, P57105): 3.84; pKd (MPP6, Q9NZW5): below the threshold; pKd (PDZD7_3, Q9H5P4): 4.26; pKd (GRIP1_3, Q9Y3R0): below the threshold; pKd (FRMPD2_2, Q68DX3): 3.59; pKd (APBA1_1, Q02410): below the threshold |
| QGLAERISVL [PRKD2, Q9BZL6] | below the threshold | below the threshold | below the threshold | below the threshold | 4.5 | below the threshold | below the threshold | below the threshold | below the threshold | 4.52 | 3.8 | below the threshold | 3.66 | 3.98 | 3.48 | below the threshold | below the threshold | 4.23 | 4.26 | below the threshold | pKd (SYNJ2BP, P57105): below the threshold; pKd (MPP6, Q9NZW5): below the threshold; pKd (PDZD7_3, Q9H5P4): 5.21; pKd (GRIP1_3, Q9Y3R0): below the threshold; pKd (FRMPD2_2, Q68DX3): below the threshold; pKd (APBA1_1, Q02410): below the threshold |
| QPCFNKLFPL [LPXN, O60711] | below the threshold | below the threshold | below the threshold | below the threshold | below the threshold | below the threshold | 3.74 | below the threshold | below the threshold | 4.33 | below the threshold | below the threshold | below the threshold | below the threshold | below the threshold | below the threshold | below the threshold | below the threshold | below the threshold | below the threshold | pKd (SYNJ2BP, P57105): below the threshold; pKd (MPP6, Q9NZW5): below the threshold; pKd (PDZD7_3, Q9H5P4): below the threshold; pKd (GRIP1_3, Q9Y3R0): below the threshold; pKd (FRMPD2_2, Q68DX3): below the threshold; pKd (APBA1_1, Q02410): below the threshold |

Reference: PMC9482650, “Quantitative fragmentomics allow affinity mapping of interactomes” (Nature Communications, 2022)
